Reference: a protein production outcome set (Wang et al. 2014)

Test: label from the status in PepcDB records

Row | Sequence | protein production
1 | MTKGISALSNIATLRSRELGPETFIPYVRHVDETTIALESRALMTMIALDGVSFETSDVRDLNGLHRSLNTLYRNIADERLALWTHVVRRRDNAYPEGRFANPFSDGLNARYRERMVNENLFRNDLYLTLVWHPGRDPAEKAAKLLSRLSKARRSDTELDGQALKHLRDHVADVAAGLQRFGPRQLTLHEHDGILFSEPSEVLHQIVGGRREPIPLTEGRISSAIYSDRVIFGRETIEIRHEADSRYAGMFGFKEYPATTRSGMLDAILTAPFELILTQSFAFTSKADARTIMGRKQNQMVSAGDKAASQIEELGEAMDDLESNRFVLGEHHLTLAVFAPSVKELTDHMAKARAYLTSGGAVVAREDLGLEAAWWAQLPGNFRYRARSGAITSRNFAALAPYHSYPAGKKDGNEWGPAVAMLKTASGSPFYFNFHHGDLGNSFVCGPSGTGKTVLLNFMLSQLEKHGPHMVFFDKDRGADLFVRAAGGTYLPLKNGVATGCAPLKALEFTAENKVFLTGWIAKLVRSGPGELSITELRDIALAVDGVADLPVERRSIGALRTFLNNTDPEGIAARLRRWEKGGPLGWVFDNEADDIGIGARFIGYDMTDFLDNEEIRTPLMAYLFYRIEQLIDGRRIIIVIDEFWKALQDEGFRDLAQNKLKTIRKQNGLMLFATQSPRDAIVSPIAHTIIEQCPTQIFLPNPRGDRADYVDGFKLTEREFELVSRELSVESRRFIVKQGHNSVVAELNLNGFDDELAILSGRTANVELADAIRLEIGEGREDWLAVFHQRRKTA | failed
2 | MTKGSLSGLPRENIELPDGSVLRRRSLVSDDAFIDAVTADVGHLGEWLRWARHPPTREETERFRAEQDADWDAGRSFVYVLTPPDRHDQVLGGGAMFPNGEVGVLEIGYWVCSPATGRGLATRAAAALTEEGLGLPGVKAMEIHCDRANARSAAIPPRIGYRLLRIEADEPQTVAEAGRSMVWRHDGA | failed
3 | MTKIAILGANGRLGRVVAKAFIDAGFDVRTVTRTGKVPAELDGATAVAGDALDRQSLISATEGVDIIFNGLNPIYTDWGKCLPMAENVMAACHANNALHLFPGTVYNYGSPMPAVITEDTPFHPTTEKGRIRCAMEELFRREADAGRVRTILLRAGDFFGGTGSGSWFDLVVAAKMSKGVYTAPGPVDLVHEWAYLPDFAVGFVALARNLDRLGSYEALNFPGHAVTDLEIKAAAEKALGRPLKMTSMPWWVLRAGSPFVAMWREIVSMSYLRFEPHQLASTRLEGIIGEIPHTPLDQAVAQALEDIGIATVKGMKAA | failed
4 | MTKISKAACIGGGVIGGGWIARFLLAGIDVDVFDPHPEAGRIVGEIIANAEKAYAMLTGAPLPPRGKLTFCETLAEAVADADWIQESVPERLDLKRGVLTEIDAAARPEALIGSSTSGLLPTDLQRNMTHPERLFVAHPYNPVYLLPLVEIVGGEKTSAGTIRAAIERLAPIGMKGVHIAKEIEAFVGDRLLEALWREALWLIHDDICTVETLDDVIRYSFGLRWAQMGLFQTYRIAGGEAGMRHFLAQFGPCLAWPWTKLTDVVDLDDALIEKIGRQSDEQAAGLSIRALERIRDENLVGILQALKGGDNGKGWGAGKLLKDFEQTLWARGGDAAASADPSKPLRLVETKVSPAWVDYNGHMTEHRYLQVFGDTSDALLRLIGVDLAYVEAGHSYYTVESHIRHLGEAKLGQAIHSACQILTADEKRLHVFHTLRDTATGAVIATAEQMLLHVDSKEGKAVAAPAAVLDRVKAIAAAHAELALPEGAGRHVGQRR | failed
5 | MTKITLSPQNFRIQKQETTLLKEKSTEKNSLAKSILAVKNHFIELRSKLSERFISHKNTESSATHFHRGSASEGRAVLTNKVVKDFMLQTLNDIDIRGSASKDPAYASQTREAILSAVYSKNKDQCCNLLISKGINIAPFLQEIGEAAKNVGLPGTTKNDVFTPSGAGANPFITPLISSANSKYPRMFINQHQQASFKIYAEKIIMTEVAPLFNECAMPTPQQFQLILENIANKYIQYTP | failed
6 | MTKKAILLSFLGGFLSLSLEVIWIRLLGFQTFSLPQAFSFTLALFLLGIAFSSFIGKKVCQQGDASINYIGRIFFIAALFDCLAIGLISTTSNSFTNLVYSIFSIFCCALLRGIVFPIVHHLGSEHKKTGAAISNVYFANVLGCTIAPIFIGFYLLDQFTTQQTYLIVISITLIIACFCLTKRVFKAINALFAISVVFATALLPEKMISTLANEEDMQLETLIENKHGIIQVYLDKNQDHLVYGSNVYDGQLNVNLNHNSNGIHRAYLLPAHRK | failed
7 | MTKLPATSDIYISFFMFTTNLQPDNLDYRRIVVAHIKKLQRFGYSGFEFPIAPGLPENYAQDLENYTNLRHYLDSEGLENVKISTNVGATRTFDPSSNYPEQRQEALEYLKSRVDITAALGGEIMMGPIVIPYGVFPTTDFNEPIWSDELQEHLKVRYANAQPILDKLGEYAEIKKVKLAIEPITHWETPGPNKLSQLIEFLKGVKSKQVGVVIDSAHEILDGEGPEIFKTQVEYLAQQGRLHYVQVSPPDRGALHTSWLPWKSFLTPIVKVYDGPIAVEIFNAIPAFTNSLRLTRRKFWIPDEDPPNQYPNAYDIADEAIKVTRKELKKIGSK | not failed
8 | MTKMLKLFDAHFHIIDYRFPLITNQSYLPPEFTVEDYLQRAKPLNICGGAVVSGSFQAFDQSYLLAALSILGSDFVGVTQLPATVSDEEIIQLNQKGIRAVRFNVKRGGSENIHRLKYFAHRIYEMVRWHVEIYVDSKDLGDLTSLLLELPAVSIDHLGLSHSGFSQLLHLVEHGIKIKASGFGRVDFDVKKALQTIAQINPDALLFGTDLPSTRAPRPFLDSDIQIIQDLFDEKLTEKILYRNARNFYSKNSSELEHHHHHH | not failed
9 | MTKNKKGKNKEVINNYEEEEDYNIIDHDENAEVDVIPEPDFNSNMVYLNIYDLDSVSKVVNTVARSVGAGAFHAGVEVYGYEYSFGYIMDGETGVTKTNARVMIQKNNEILKNIKTYRIHVNIYIYIFLLVFSKTPLTKEEVDLLVEVMKLQWIGDTYDILSRNCLNYADYFCNLLDVGGIPEWVMSLQKKVTWVKSNINIAASKLKELNKAAGIPNVINYLKKKYEDSNSSDDYKGCKVVVK | failed
10 | MTKPQGAVAEKATPAVPKPQKVRVIVEFNKESILDYATEQKKTVAQLNQADVEKKLQSIKQEQDKVLKNIEKSVHFDSSKVKRYDAIINGVALDIQAQEIEKLKTIADVRRVYVSQEYVQTKPLLSSSGQLIGLPEVWNNSQYKGEGTVVAVIDSGVDFKHQALKIKEPNRAKYNKTSIEKLIHEKNLKGKFYSEKVPYGYNYYDYNDNLKDSYGVMHGMHVTGIVGANDDNQKLYGVAPNAQILAMKVFSDDQQNPTTFTDVWLKALDDAILLKADVVNMSLGTPAGFVHEGKDYPELEVIARACKAGIVIAVAAGNEGNITDGNTYGVKPLAENYDTALIANPALDDNTLAVASMENLKKHAHVLKFKDKKSGTEVTEVINLHVAPNASKTIIGLAVDLGAGAPSELSKHFDLSGKIAMLEIPEDNKSNGFLEKVQAITKLNPAAILLYNNAKVKDDLGSQLLVESEAAKFNIARITRSTYNNIKNNSNKIITILTERQAIDNSLAGQLSSYSSWGPTPDLRLKPEITAPGGHIFSTVEDNQYADKSGTSMAAPQVAGAAAVLKQYITDKKIPVDNAADFIKLLLMNTAQPIINKQSKDGKTPYFVRQQGSGAMNLAKALVTTVVATVTGTNDNNADGKLELRELKEKKFKARILLRNFGKTNKTYIISSEAIADPVDEKGFRTQNSEHLVSKKADAVTRKVTVEAGKTLAVDLDVDYSDAEALTRNNFLEGYLNLKDTEGVADLHLPFLGFYGSWTEQKAIDAFEGISEIGNGDKKRRVQFYVNKETNKTSSTFTTNGMLSLPIYNNTVFFSPNSPFYDKAGVRIAALRNMEYVQYSIIDPDTNKEVRVLGRSHDVRKLYRLDYRNSFAMMPDSIWDGKIKD | failed
11 | MTKQKKLLPVASLLLGAAIWGVAWYPYRLLEQAGMRGELSTTLAYSIALLIGLILFRRQLRISEILNPAAGILFWISLSAGWTGIAYVLGIIHGEVMRVLLLFYLAPLWTILFSRILLQERLSRQGYAIILLSLAGALLLLWQPGSKLPLLASYGDWMGLSGGLAFALTNVLIRKDQQHGIQLKLLAVLSGTALTGFAATLLMESISDITHLHTHAWLILAGIGGLVFFLCILLQYGMTHIPANQAIVIMLFELVVAAIAAHFLTNEYLTGRDWAGGLMIASASLFSARVNRD | failed
12 | MTKSKIIEIGPLVPAFEEEKIVILFGPTATNELREISVIHEFEAAPQSALSKGNTLQIGDQVYIIEEVGTEANKNLEELGHISIYFRSGQNEVLPGAIVVSPEVFPTLAIGDTIQF | failed
13 | MTKSQIMDLSNFYQDTDYPSGRLIALLILSLGLTPAEIANLKKADFDTTFNILSIEKSQMKRILKLPEDLLPFLLESLEEDGDLVFEHNGKPYSRQWFFNQLTDFLNEKNEQQLTAQLLREQFILKQKENGKTMTELSRLLGLKTPITLERYYRLEHHHHHH | not failed
14 | MTKSTPHPSSIIKAEQQSLLYLHIAVFLFGGTALFSKLIGLPALDITVYRTGIAALALFILLTLQKKQISLSSMKDYGIAILLGCVVGLHWVTYFTGMQMAGVTVGMIAFFTYPVITVFIEPFFNRTVPKMKDMITAFVVIIGIVLLIPEISFGNQITLGIVTGIISAVFFALRNILHKNYFSHYSGPHTMLYQTLVACLMLCLFVEVPPMQVTESDWLLLLLVGVVFTATPHALFASSLRSLSATTAGLISCLQPLYGSILAIILLHERPDILTIIGGLLVVSAAIFETWSVSRGRR | failed
15 | MTKTWEQLSAIQPIGVKMLMNSIAKERISHAYLLEGEKGTGKFATAIQMAKSFLCSQRNRVEPCHVCTNCKRIDSGNHPNLHIVKPDGLSIKKQQIHDLQEEFSKTGLEANKKVYIIEHADRMTANAANALLKFLEEPSSDTTAILLTEQSHQILNTILSRCQVVTFRPLPTESLIRRLQDEGITVSLSTLAAQLTNSFDEALTLCNDEWFAQARALVIKLCEALEKDKASIFFVQEKWGKHFGEKEQLQQGLDMLLLIYKDLLYVQLGEEDRLVFREQKEMFESFSYAQKRIVSALFNILEAKNRINANVNAQLVFEQLVLRLQEG | failed
16 | MTKYALVGDVGGTNARLALCDIASGEISQAKTYSGLDYPSLEAVIRVYLEEHKVEVKDGCIAIACPITGDWVAMTNHTWAFSIAEMKKNLGFSHLEIINDFTAVSMAIPMLKKEHLIQFGGAEPVEGKPIAVYGAGTGLGVAHLVHVDKRWVSLPGEGGHVDFAPNSEEEAIILEILRAEIGHVSAERVLSGPGLVNLYRAIVKADNRLPENLKPKDITERALADSCTDCRRALSLFCVIMGRFGGNLALNLGTFGGVFIAGGIVPRFLEFFKASGFRAAFEDKGRFKEYVHDIPVYLIVHDNPGLLGSGAHLRQTLGHIL | not failed
17 | MTLDAAPHLHPAVLSPRPQPGRHRRDLHQSSRAFVLLTCIVATLALMLSLPAGLQAAEATVIVPFGGGILRDDAQTVAAAAARIEALRLSTASLGRDSAALFSAETPARLLSLTAATFEAHTTATSVVGYPPEVEVAVNIRTTPRGGDAATALRAALRAPEKLELREGILLHTRENLLEARQLALDAARHRQKAGTESESPYDRRFAALARTLRSLDTLERALSYLDGVWRHPIILAADMRQVVEASPEMPLGWTFLGEALLQLDRPQDAVEALDRALALPDAPVRARLARGIANLRLDLTALAVDDLSRVLREAPRLAPAWRARGAARMMRREYGPMCEDFIQACNLGDCEGLASARDAGHCLAPARPQTVKADD | failed
18 | MTLFDGTPFEWAPGRIEVRARRECGASRKSLVVAAGVSYLARMIFSFDAFVTNALFDRSGRAMFALGDGTVRLQTDEGFVTVEAHGGPLGGAVLAAAVHPSGAGIVTGGDDGRVVWSRIEGGEVVATLIAEVKNKWIEHVAASAASGLIAFTVGKEVHVRDAADPAFARTFPHEKTVSGLAFEPKGRRLASATYGGAYLWYARIADQKPTVLKWAGSHIAVEFSPDGKFLISSMQENQLHGWRLSDGKDMRMGGYPSKIKSVAFFDKGNLLATAGASGAVIWPFAGANGPMGKEAAEIGFSRDSMVVRVAGIDPQPVCIAGQDSGKIWAAHMRNGRIETLKAEKGAPISALSVSADGKRLAWGDESGEAGVLEIPDLSGPRQFVG | failed
